Experimental data reported in paper PMC10184318, “The fission yeast cytokinetic ring component Fic1 promotes septum formation” (Biology Open, 2023).

Target: T1, Fic1-MBP (S. pombe, UniProt O94701 1-272)
T1 construct: Fic1 of S. pombe; The printed name puts MBP after Fic1; source: E. coli, purified (standard biochemistry techniques)
T1 sequence (looked up): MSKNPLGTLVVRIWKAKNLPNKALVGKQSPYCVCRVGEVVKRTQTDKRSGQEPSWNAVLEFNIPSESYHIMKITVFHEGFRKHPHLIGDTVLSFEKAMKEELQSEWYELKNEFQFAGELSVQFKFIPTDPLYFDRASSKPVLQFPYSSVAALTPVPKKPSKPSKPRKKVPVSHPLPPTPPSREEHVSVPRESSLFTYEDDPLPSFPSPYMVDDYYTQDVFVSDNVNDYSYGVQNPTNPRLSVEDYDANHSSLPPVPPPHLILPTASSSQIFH
Assay: pull-down; in vitro binding assay with recombinant proteins, one bead-bound and one soluble; 20 mM Tris pH 7.4, 150 mM NaCl; 4°C, 1 h; three washes; SDS-PAGE and Coomassie staining
Details: both partners purified

B1: Cyk3-SH3-GST (aa1-66) (domain or fragment, S. pombe, UniProt O14302 1-66, looked up)
chain: MSIPKQLPCMVRALYAWPGEREGDLKFTEGDLIECLSIGDGKWWIGRHINTNTQGIFPSNFVHCLD
notes: Cyk3 of S. pombe, SH3 domain, residues 1-66; The printed name puts GST after the SH3 domain (Cyk3-SH3-GST, against GST-Cdc15-SH3), which hints at a C-terminal GST; also called Cyk3's SH3 domain; source: E. coli, purified (standard biochemistry techniques)
binding result: binds
